Test results from patent US11161908 (CITY OF HOPE, dated 2021).

B1: chimeric anti-human BAFF-R antibody C55 (Clone 55 variable regions, human IgG1 constant regions) (antibody, V domains shown)
VH: QVTLKESGPGILKPSQTLSLTCSFSGFSLSTSGMGVGWIRQPSGKGLEWLAHIWWDDDKYYNSSLKSHLTISKDTSRNQVFLKITSVDTADTATYYCARSFGYGLDYWGQGTTLTVSS
VL: DIQMTQTTSSLSASLGDRVTISCSASQDISNYLNWYQQKPDGTVKLLIYYTSSLHSGVPSRFSGSGSGTDYSLTISSLEPEDIATYYCHQFSELPWTFGGGTKLEIK
modifications: Conjugated to Alexa Fluor 488 in FIG. 1D (sites not given)
notes: also called chimeric C55; Chi55
B2: mouse monoclonal antibody from hybridoma Clone 55 (antibody, V domains shown)
VH: QVTLKESGPGILKPSQTLSLTCSFSGFSLSTSGMGVGWIRQPSGKGLEWLAHIWWDDDKYYNSSLKSHLTISKDTSRNQVFLKITSVDTADTATYYCARSFGYGLDYWGQGTTLTVSS
VL: DIQMTQTTSSLSASLGDRVTISCSASQDISNYLNWYQQKPDGTVKLLIYYTSSLHSGVPSRFSGSGSGTDYSLTISSLEPEDIATYYCHQFSELPWTFGGGTKLEIK
notes: also called mouse mAb C55
B3: chimeric anti-human BAFF-R antibody C90 (Clone 90 variable regions, human IgG1 constant regions) (antibody, V domains shown)
VH: EVQLQESGPSLVKPSQTLSLTCSVTGDSITSGYWNWIRKFPGNKLEYMGYISYSGSTYYNPSLKSRISITRDTSKNQYYLQLNSVTPEDTATYYCASPNYPFYAMDYWGQGTSVTVSS
VL: not shown
notes: also called chimeric C90; Chi90
B4: humanized C90 variant HC1 + LC3 (antibody, V domains shown)
VH: QVQLQESGPGLVKPSQTLSLTCTVSGDSITSGYWNWIRQHPGKGLEYIGYISYSGSTYYNPSLKSRVTISRDTSKNQFSLKLSSVTAADTAVYYCASPNYPFYAMDYWGQGTLVTVSS
VL: DIVMTQSPSSLSASVGDRVTITCRASESVDNYGISFMNWFQQKPGKAPKLLIYAASNLGSGVPSRFSGSGSGTDFTLTISSLQPEDFATYYCQQSKEVPWTFGQGTKVEIKR
notes: also called Humanized HC1 + LC3; Hu90 HC-1 with Hu90 LC-3
B5: humanized C90 variant HC2 + LC1 (antibody, V domains shown)
VH: EVQLQESGPGLVKPSQTLSLTCTVSGDSITSGYWNWIRQHPGKGLEYIGYISYSGSTYYNPSLKSRVTISRDTSKNQYSLKLSSVTAADTAVYYCASPNYPFYAMDYWGQGTLVTVSS
VL: EIVLTQSPATLSLSPGERATLSCRASESVDNYGISFLNWFQQKPGQAPRLLIYAASNRATGIPARFSGSGSGTDFTLTISSLEPEDFAVYYCQQSKEVPWTFGGGTKVEIKR
notes: also called Humanized HC2 + LC1; Hu90 HC-2 with Hu90 LC-1
B6: humanized C90 variant HC1 + LC2 (antibody, V domains shown)
VH: QVQLQESGPGLVKPSQTLSLTCTVSGDSITSGYWNWIRQHPGKGLEYIGYISYSGSTYYNPSLKSRVTISRDTSKNQFSLKLSSVTAADTAVYYCASPNYPFYAMDYWGQGTLVTVSS
VL: DIVLTQSPATLSLSPGERATLSCRASESVDNYGISFMNWFQQKPGQAPRLLIYAASNRATGIPARFSGSGSGTDFTLTISSLEPEDFAVYYCQQSKEVPWTFGGGTKVEIKR
notes: also called Humanized HC1 + LC2; Hu90 HC-1 with Hu90 LC-2
B7: humanized C90 variant HC1 + LC1 (antibody, V domains shown)
VH: QVQLQESGPGLVKPSQTLSLTCTVSGDSITSGYWNWIRQHPGKGLEYIGYISYSGSTYYNPSLKSRVTISRDTSKNQFSLKLSSVTAADTAVYYCASPNYPFYAMDYWGQGTLVTVSS
VL: EIVLTQSPATLSLSPGERATLSCRASESVDNYGISFLNWFQQKPGQAPRLLIYAASNRATGIPARFSGSGSGTDFTLTISSLEPEDFAVYYCQQSKEVPWTFGGGTKVEIKR
notes: also called Humanized HC1 + LC1; Hu90 HC-1 with Hu90 LC-1
B8: humanized C90 variant HC3 + LC3 (antibody, V domains shown)
VH: EVQLQESGPGLVKPSETLSLTCSVSGDSITSGYWNWIRQPPGKGLEYIGYISYSGSTYYNPSLKSRVTISRDTSKNQYSLRLSSVTAADTALYYCASPNYPFYAMDYWGQGTRVTVSS
VL: DIVMTQSPSSLSASVGDRVTITCRASESVDNYGISFMNWFQQKPGKAPKLLIYAASNLGSGVPSRFSGSGSGTDFTLTISSLQPEDFATYYCQQSKEVPWTFGQGTKVEIKR
notes: also called Humanized HC3 + LC3; Hu90 HC-3 with Hu90 LC-3
B9: humanized C90 variant HC3 + LC1 (antibody, V domains shown)
VH: EVQLQESGPGLVKPSETLSLTCSVSGDSITSGYWNWIRQPPGKGLEYIGYISYSGSTYYNPSLKSRVTISRDTSKNQYSLRLSSVTAADTALYYCASPNYPFYAMDYWGQGTRVTVSS
VL: EIVLTQSPATLSLSPGERATLSCRASESVDNYGISFLNWFQQKPGQAPRLLIYAASNRATGIPARFSGSGSGTDFTLTISSLEPEDFAVYYCQQSKEVPWTFGGGTKVEIKR
notes: also called Humanized HC3 + LC1; Hu90 HC-3 with Hu90 LC-1
B10: humanized C90 variant HC2 + LC2 (antibody, V domains shown)
VH: EVQLQESGPGLVKPSQTLSLTCTVSGDSITSGYWNWIRQHPGKGLEYIGYISYSGSTYYNPSLKSRVTISRDTSKNQYSLKLSSVTAADTAVYYCASPNYPFYAMDYWGQGTLVTVSS
VL: DIVLTQSPATLSLSPGERATLSCRASESVDNYGISFMNWFQQKPGQAPRLLIYAASNRATGIPARFSGSGSGTDFTLTISSLEPEDFAVYYCQQSKEVPWTFGGGTKVEIKR
notes: also called Hu90 HC-2 with Hu90 LC-2
B11: humanized C90 variant HC3 + LC2 (antibody, V domains shown)
VH: EVQLQESGPGLVKPSETLSLTCSVSGDSITSGYWNWIRQPPGKGLEYIGYISYSGSTYYNPSLKSRVTISRDTSKNQYSLRLSSVTAADTALYYCASPNYPFYAMDYWGQGTRVTVSS
VL: DIVLTQSPATLSLSPGERATLSCRASESVDNYGISFMNWFQQKPGQAPRLLIYAASNRATGIPARFSGSGSGTDFTLTISSLEPEDFAVYYCQQSKEVPWTFGGGTKVEIKR
notes: also called Humanized HC3 + LC2; Hu90 HC-3 with Hu90 LC-2

Key:
[1] = target: T1, human BAFF-R, endogenous, on human B-cell lines, primary lymphoma cells and normal B cells (human, UniProt Q96RJ3 1-184); assay: flow cytometry, Alexa Fluor 488-conjugated chimeric antibody on primary NHL patient samples
T1 construct: whole, on cells; also called BAFF-R-positive human MCL lines (Mino, JeKo-1, REC-1, JVM-13, Z-138); NHL lines JeKo-1, SU-DHL-6, Raji, RL

[2] = target: T1, human BAFF-R, endogenous, on human …; assay: flow cytometry, hybridoma supernatant at 1/10, 1/50 and 1/200 with anti-mouse IgG-APC on Mino; 293T as negative control
From the text: Figure 8: FIG. 8 are flow cytometry results showing verification that selected hybridoma clones bind MCL cells. Binding of hybridoma Clone 53, 55, 67, and 90 supernatants (1/10, 1/50, and 1/200 dilutions) to Mino (mantle cell lymphoma) and 293T (negative control) cell lines assessed by flow cytometry performed with anti-mouse IgG-APC.

[3] = target: T2, commercial, recombinant extracellular domain of human BAFF-R (human, UniProt Q96RJ3 1-78); assay: Biacore analysis; antibody as loading sample, recombinant human BAFF-R ECD as sample
T2 construct: extracellular domain
Experimental: The chimeric anti-BAFF-R antibody C90 was humanized with several variants. The humanization process took into consideration and analysis of the variable region and specifically the CDRs of the chimeric antibody. From there, three variants for each heavy and light chain was developed with varying degrees of human-likeness ranging from 1 the most human to 3 the most conservative to the chimeric. The variants were combined to produce 9 variants. Biacore analysis was performed on each variant as well as the chimeric parental C90 to determine their equilibrium dissociation constant K_D. The antigen was commercial, recombinant extracellular domain of human BAFF-R.

| Binder | binding result [1] | binding result [2] | koff [3] [s⁻¹] | kon [3] [M⁻¹ s⁻¹] | Kd [3] [nM] |
| --- | --- | --- | --- | --- | --- |
| B1 | binds | – | – | – | – |
| B2 | – | binds | – | – | – |
| B3 | – | – | 0.002 | 990000 | – |
| B4 | – | – | 0.0021 | 410000 | 5 |
| B5 | – | – | 0.002 | 770000 | 2.6 |
| B6 | – | – | 0.0023 | 620000 | 3.7 |
| B7 | – | – | 0.0024 | 610000 | 4 |
| B8 | – | – | 0.0023 | 680000 | 3.4 |
| B9 | – | – | 0.0031 | 820000 | 3.8 |
| B10 | – | – | 0.0022 | 610000 | 3.6 |
| B11 | – | – | 0.0037 | 1.2e+06 | 3.1 |
